Experimental data taken from article PMC9565474, “Evolution avoids a pathological stabilizing interaction in the immune protein S100A9” (Proceedings of the National Academy of Sciences of the …, 2022).

Biological target: the molecule itself
Assay: NMR structure; calcium-bound hS100A9/M63F, 0.5 to 1.0 mM dimer, 25 mM Tris, 100 mM NaCl, 10 mM CaCl2 (pH 7.4), 10% D2O, 25 °C or 37 °C; homodimer with chains A and B

B1: hS100A9/M63F (natural protein, human, UniProt P06702 1-114, looked up)
chain: MTSKMSQLERNIETIINTFHQYSVKLGHPDTLNQGEFKELVRKDLQNFLKKENKNEKVIEHIFEDLDTNADKQLSFEEFIMLMARLTWASHEKMHEGDEGPGHHHKPGLGEGTP
notes: human S100A9, Uniprot P06702, Cys-free (C3S) background with M63F; 114 residues (residues 1 to 114 named in the NMR structure); 15N or 15N/13C labelled for NMR; also called human S100A9 M63F; F/F
Question: Does B1 bind?
Answer: binds
